The test concerns the target IgE antibodies in four Pru p 7 reactive human sera. The test is described as follows: ImmunoCAP IgE inhibition, inhibitor in solution at 20 ug/mL, rPru p 7 on solid phase.

Consider one molecule from US20250276057A1.

B1: recombinant Cup s GRPb (protein)
chain: AQIDCDKECNRRCSKASLHDRCLKYCGICCEKCHCVPPGTAGNEDVCPCYAHLKNSKGGHKCP
B1: the percent inhibition of IgE binding to rPru p 7 (fourth serum) came to 80%.
